Drawing on paper PMC3235159, this text covers Kd for 2 substances.

Assay [1] addresses TGF-β1 (Homo sapiens) (UniProt P01137). The note with it: cited from earlier work.
Assay [2] addresses Purified LRP1 (LDL receptor-related protein 1) (UniProt Q07954). In words: SPR; purified LRP1 immobilised on a CM5 chip by amine coupling (5.8 fmol/mm^2, 3,500 RU); TGF-β2 flowed at 6, 12, 15, 50, 100 and 200 nM; HBS-P pH 7.4, 0.005% Tween 20, 1 mM CaCl2, 20 µl/min, 25°C; Rmax of pseudo-first order fits replotted against concentration and fit to a single class of sites. On the technique in general: Surface plasmon resonance follows binding to a sensor surface in real time, without labels.

Purified LRP1 (LDL receptor-related protein 1), sequence (Q07954 20-4544): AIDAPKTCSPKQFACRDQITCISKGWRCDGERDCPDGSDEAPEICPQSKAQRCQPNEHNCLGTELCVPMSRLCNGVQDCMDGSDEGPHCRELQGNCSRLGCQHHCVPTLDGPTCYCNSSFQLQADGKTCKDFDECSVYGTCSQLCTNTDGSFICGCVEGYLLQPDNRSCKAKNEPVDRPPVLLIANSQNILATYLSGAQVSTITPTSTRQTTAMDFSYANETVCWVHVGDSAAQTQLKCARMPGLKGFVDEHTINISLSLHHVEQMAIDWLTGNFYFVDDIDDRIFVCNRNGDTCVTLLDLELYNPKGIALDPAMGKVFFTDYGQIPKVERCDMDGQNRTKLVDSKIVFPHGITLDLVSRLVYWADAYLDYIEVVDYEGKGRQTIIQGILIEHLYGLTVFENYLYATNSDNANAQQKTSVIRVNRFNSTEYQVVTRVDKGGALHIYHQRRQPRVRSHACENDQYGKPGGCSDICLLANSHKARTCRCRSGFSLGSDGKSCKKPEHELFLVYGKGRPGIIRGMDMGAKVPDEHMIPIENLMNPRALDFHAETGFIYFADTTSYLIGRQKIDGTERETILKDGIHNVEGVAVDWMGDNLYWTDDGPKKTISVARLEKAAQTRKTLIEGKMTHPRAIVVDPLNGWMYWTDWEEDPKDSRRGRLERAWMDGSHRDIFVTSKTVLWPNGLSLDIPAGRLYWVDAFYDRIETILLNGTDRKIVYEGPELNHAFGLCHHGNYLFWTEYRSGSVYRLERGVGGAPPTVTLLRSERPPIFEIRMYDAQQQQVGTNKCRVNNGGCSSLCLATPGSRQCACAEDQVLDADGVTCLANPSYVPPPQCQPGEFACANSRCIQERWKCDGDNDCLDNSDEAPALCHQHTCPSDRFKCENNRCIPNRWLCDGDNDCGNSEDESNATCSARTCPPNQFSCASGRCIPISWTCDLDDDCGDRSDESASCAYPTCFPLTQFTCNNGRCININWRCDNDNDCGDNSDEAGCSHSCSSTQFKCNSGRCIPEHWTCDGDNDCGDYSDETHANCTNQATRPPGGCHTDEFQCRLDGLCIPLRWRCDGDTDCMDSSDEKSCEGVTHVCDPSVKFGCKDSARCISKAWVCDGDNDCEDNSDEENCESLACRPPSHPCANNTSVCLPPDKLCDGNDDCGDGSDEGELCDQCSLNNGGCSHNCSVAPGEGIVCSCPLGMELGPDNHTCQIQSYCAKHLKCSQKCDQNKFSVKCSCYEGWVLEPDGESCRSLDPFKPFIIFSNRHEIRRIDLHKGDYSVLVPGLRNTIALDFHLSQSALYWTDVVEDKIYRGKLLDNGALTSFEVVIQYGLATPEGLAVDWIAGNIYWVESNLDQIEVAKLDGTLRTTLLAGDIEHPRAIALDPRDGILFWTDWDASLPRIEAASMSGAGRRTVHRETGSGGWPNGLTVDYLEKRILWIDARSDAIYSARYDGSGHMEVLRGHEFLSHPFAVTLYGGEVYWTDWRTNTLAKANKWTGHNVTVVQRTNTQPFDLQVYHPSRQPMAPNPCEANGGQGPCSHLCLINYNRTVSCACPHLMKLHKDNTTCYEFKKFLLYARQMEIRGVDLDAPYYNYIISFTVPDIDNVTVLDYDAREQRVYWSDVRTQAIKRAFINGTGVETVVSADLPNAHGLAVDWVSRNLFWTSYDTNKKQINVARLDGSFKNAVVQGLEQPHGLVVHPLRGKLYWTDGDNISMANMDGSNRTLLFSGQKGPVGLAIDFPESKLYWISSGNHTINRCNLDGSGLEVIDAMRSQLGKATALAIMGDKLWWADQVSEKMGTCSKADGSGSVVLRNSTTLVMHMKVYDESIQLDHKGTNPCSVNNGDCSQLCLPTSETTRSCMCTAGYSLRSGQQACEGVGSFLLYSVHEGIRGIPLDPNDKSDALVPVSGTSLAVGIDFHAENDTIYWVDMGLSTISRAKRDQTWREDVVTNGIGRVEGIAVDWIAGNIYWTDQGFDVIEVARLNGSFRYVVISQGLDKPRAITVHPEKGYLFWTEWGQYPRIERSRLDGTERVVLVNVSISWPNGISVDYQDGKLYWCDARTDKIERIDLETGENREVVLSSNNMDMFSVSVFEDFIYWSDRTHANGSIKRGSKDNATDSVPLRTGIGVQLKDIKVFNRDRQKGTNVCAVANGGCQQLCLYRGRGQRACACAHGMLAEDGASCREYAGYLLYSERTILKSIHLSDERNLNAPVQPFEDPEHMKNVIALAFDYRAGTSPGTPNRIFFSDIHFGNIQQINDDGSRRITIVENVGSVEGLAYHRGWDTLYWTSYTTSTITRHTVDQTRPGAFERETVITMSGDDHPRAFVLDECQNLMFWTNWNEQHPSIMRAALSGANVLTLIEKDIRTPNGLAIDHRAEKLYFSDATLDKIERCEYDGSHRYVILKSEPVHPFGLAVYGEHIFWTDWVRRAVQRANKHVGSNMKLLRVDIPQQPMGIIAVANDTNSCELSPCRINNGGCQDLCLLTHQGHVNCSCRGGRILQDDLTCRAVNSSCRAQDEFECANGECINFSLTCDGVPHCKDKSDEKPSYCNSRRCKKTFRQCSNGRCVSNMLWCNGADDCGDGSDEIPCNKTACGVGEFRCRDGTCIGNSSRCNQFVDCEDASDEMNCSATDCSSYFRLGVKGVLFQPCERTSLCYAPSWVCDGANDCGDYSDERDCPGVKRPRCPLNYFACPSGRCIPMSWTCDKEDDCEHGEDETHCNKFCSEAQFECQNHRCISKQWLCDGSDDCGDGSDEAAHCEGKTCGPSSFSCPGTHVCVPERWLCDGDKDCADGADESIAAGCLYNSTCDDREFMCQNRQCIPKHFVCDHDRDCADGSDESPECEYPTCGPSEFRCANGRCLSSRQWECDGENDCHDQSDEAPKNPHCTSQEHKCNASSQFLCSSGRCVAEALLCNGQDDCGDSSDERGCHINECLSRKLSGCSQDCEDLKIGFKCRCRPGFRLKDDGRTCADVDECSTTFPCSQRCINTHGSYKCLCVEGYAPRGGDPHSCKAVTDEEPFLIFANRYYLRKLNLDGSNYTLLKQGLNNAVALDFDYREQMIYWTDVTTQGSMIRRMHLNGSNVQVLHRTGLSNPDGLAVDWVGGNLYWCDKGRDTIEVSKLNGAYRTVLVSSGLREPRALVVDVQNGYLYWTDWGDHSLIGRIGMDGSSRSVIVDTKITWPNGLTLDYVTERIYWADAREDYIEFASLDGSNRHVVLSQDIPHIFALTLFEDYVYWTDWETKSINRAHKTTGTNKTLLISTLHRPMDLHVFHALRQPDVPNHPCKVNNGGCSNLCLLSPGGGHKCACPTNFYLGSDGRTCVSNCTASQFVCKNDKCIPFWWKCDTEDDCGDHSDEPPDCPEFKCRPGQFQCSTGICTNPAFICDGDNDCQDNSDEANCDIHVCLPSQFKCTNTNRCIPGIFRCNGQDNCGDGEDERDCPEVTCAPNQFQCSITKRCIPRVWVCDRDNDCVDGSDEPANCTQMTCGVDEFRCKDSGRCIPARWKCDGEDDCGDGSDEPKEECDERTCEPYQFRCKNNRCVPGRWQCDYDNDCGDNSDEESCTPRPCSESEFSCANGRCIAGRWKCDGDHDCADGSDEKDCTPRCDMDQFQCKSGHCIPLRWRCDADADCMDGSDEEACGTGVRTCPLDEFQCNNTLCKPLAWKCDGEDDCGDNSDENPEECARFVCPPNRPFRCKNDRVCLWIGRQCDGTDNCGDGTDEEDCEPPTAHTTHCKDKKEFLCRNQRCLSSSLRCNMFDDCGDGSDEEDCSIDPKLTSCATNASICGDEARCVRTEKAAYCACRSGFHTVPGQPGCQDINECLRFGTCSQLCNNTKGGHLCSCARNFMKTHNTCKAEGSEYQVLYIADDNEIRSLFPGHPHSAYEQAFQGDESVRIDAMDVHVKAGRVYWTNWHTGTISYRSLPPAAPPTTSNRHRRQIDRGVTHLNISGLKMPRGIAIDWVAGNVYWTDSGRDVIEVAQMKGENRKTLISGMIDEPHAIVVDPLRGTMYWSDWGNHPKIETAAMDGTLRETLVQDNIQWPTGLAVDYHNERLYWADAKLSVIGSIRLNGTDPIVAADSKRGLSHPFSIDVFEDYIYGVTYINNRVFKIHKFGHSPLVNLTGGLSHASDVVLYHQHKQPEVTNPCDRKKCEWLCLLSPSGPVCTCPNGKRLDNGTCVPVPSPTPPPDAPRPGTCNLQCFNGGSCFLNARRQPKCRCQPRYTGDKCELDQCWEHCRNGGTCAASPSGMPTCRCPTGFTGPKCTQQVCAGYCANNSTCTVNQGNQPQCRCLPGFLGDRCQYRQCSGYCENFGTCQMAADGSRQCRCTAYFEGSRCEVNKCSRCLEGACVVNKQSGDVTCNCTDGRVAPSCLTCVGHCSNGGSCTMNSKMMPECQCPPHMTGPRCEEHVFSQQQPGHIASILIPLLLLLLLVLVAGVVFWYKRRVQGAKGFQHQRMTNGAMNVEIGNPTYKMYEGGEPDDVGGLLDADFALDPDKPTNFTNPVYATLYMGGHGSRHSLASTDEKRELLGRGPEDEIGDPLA
LRP1, sequence (Q07954 20-4544): as above
TGF-β1 (Homo sapiens), sequence (P01137 279-390): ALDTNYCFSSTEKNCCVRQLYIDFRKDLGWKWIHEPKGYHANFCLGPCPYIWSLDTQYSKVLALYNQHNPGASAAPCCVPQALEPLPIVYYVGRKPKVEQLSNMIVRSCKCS

Regarding LRP1 (from UniProt Q07954), the Kd in assay [1] was 157 nM. Regarding TGF-β2 (Sigma) (ligand), in assay [2], the Kd is 222 nM.

As a reminder, the Kd is the constant that tells how readily two partners part at equilibrium.
